± gives the uncertainty stated by the source.
Assay: self-splicing fitness, log relative to wild type (ln ratio); higher = more splicing; Tetrahymena group I intron in knt gene, E. coli kanamycin selection, DiMSum; sequences stand for … in CUCUCU…GGAGGGAAAAGUUAUCAGGCAUGCACCUGGUAGCUAGUCUUUAAACCAAUAGAUUGCAUCGGUUUAAAAGGCAAGACCGUCAAAUUGCGGGAAAGGGGUCAACAGCCGUUCAGUACCAAGUCUCAGGGGAAACUUUGAGAUGGCCUUGCAAAGGGUAUGGUAAUAAGCUGACGGACAUGGUCCUAACCACGCAGCCAAGUCCUAAGUCAACAGAUCUUCUGUUGAUAUGGAUGCAGUUCACAGACUAAAUGUCGGUCGGGGAAGAUGUAUUCUUCUCAUAAGAUAUAGUCGGACCUCUCCUUAAUGGGAGCUAGCGGAUGAAGUGAUGCAACACUGGAGCCGCUGGGAACUAAUUUGUAUGCGAAAGUAUAUUGAUUAGUUUUGGAGUACUCGUGGUCG
Outline: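 Library with all eight P1ex-region intron nucleotides randomised, intron inside the knt kanamycin-resistance gene on pET-22b(+), in E. coli BL21(DE3). Cells grew overnight at 37°C or 30°C on LB agar with or without 25 μg/mL kanamycin (plus 100 μg/mL carbenicillin, 50 μM IPTG, 0.2% rhamnose), in six replicate transformations. Pooled colonies were amplicon-sequenced on Illumina HiSeq 2500. DiMSum fitness is the error-weighted combination of wild-type-normalised replicate fold changes, kanamycin versus none.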

Sequence | self-splicing fitness (ln) (30 °C) | self-splicing fitness (ln) (37 °C)
GUGUAGCAAUAUUACGCUUG | -1.07 ± 0.16 | -1.57 ± 0.27
GUGUAGCAAUAUUACGGAUU | -2.13 ± 0.087 | -1.16 ± 0.11
GUGUAGCAAUAUUACGGCGA | -1.18 ± 0.089 | -0.268 ± 0.098
GUGUAGCAAUAUUACGGGCU | -2.88 ± 0.46 | -0.129 ± 0.14
GUGUAGCAAUAUUACGGUCC | -1.7 ± 0.23 | -0.716 ± 0.25
GUGUAGCAAUAUUACGGUCG | -1.32 ± 0.16 | -0.824 ± 0.25
GUGUAGCAAUAUUACGUACC | -1.2 ± 0.29 | -0.885 ± 0.37
GUGUAGCAAUAUUACGUACU | -1.52 ± 0.095 | -1.19 ± 0.14
GUGUAGCAAUAUUACGUAGG | -2.66 ± 0.18 | -1.5 ± 0.18
GUGUAGCAAUAUUACGUGAA | -1.94 ± 0.19 | -0.954 ± 0.2
GUGUAGCAAUAUUACGUGAG | -1.23 ± 0.095 | -0.931 ± 0.093
GUGUAGCAAUAUUACGUGCU | -1.44 ± 0.11 | -1.09 ± 0.13
GUGUAGCAAUAUUACGUUAG | -2.45 ± 0.25 | -1.56 ± 0.22
GUUAAGCAAUAUUACGAAGG | -2.17 ± 0.18 | -1.87 ± 0.28
GUUAAGCAAUAUUACGACUA | -0.731 ± 0.13 | -0.438 ± 0.11
GUUAAGCAAUAUUACGAGCG | -1.54 ± 0.11 | -0.685 ± 0.13
GUUAAGCAAUAUUACGCCAU | -2.03 ± 0.27 | -1.26 ± 0.3
GUUAAGCAAUAUUACGGCCC | 0.0722 ± 0.14 | 0.517 ± 0.17
GUUAAGCAAUAUUACGGCGA | -0.403 ± 0.096 | -0.122 ± 0.11

Sequence | self-splicing fitness (ln) (30 °C) | self-splicing fitness (ln) (37 °C)
GUUAAGCAAUAUUACGGGCA | -0.851 ± 0.15 | -1.14 ± 0.14
GUUAAGCAAUAUUACGGUAC | -1.7 ± 0.17 | -1.33 ± 0.22
GUUAAGCAAUAUUACGUACA | -1.04 ± 0.11 | -0.694 ± 0.16
GUUAAGCAAUAUUACGUCGU | -0.93 ± 0.078 | -0.441 ± 0.081
GUUAAGCAAUAUUACGUGAC | -1.93 ± 0.24 | -2.56 ± 0.37
GUUAAGCAAUAUUACGUUAA | -2.24 ± 0.17 | -1.79 ± 0.17
GUUAAGCAAUAUUACGUUAC | -2.36 ± 0.19 | -1.33 ± 0.15
GUUAAGCAAUAUUACGUUCA | -0.268 ± 0.09 | -0.472 ± 0.11
GUUCAGCAAUAUUACGAAAG | -0.36 ± 0.24 | 0.462 ± 0.22
GUUCAGCAAUAUUACGAAAU | -0.0391 ± 0.068 | 0.236 ± 0.12
GUUCAGCAAUAUUACGACAU | -0.0137 ± 0.013 | 0.437 ± 0.033
GUUCAGCAAUAUUACGACGC | 0.0985 ± 0.12 | 0.651 ± 0.23
GUUCAGCAAUAUUACGCAGC | -3.43 ± 0.29 | -1.1 ± 0.2
GUUCAGCAAUAUUACGCGAA | -2.26 ± 0.27 | -1.82 ± 0.28
GUUCAGCAAUAUUACGCGCG | -0.45 ± 0.31 | -0.279 ± 0.23
GUUCAGCAAUAUUACGCGGG | -2.32 ± 0.14 | -0.613 ± 0.1
GUUCAGCAAUAUUACGGAAC | -3.19 ± 0.2 | -2.09 ± 0.38
GUUCAGCAAUAUUACGGAGG | -2.38 ± 0.13 | -1.22 ± 0.17

From the supplement of paper PMC7877785
